The record followed here is patent publication US20020076765A1 (IOWA STATE UNIVERSITY RESEARCH FOUNDATION, published 2002).

B1: bovine tumor necrosis factor-alpha (TNF-alpha) (ligand, UniProt Q06599 78-234, looked up)
chain: LRSSSQASSNKPVAHVVADINSPGQLRWWDSYANALMANGVKLEDNQLVVPADGLYLIYSQVLFRGQGCPSTPLFLTHTISRIAVSYQTKVNILSAIKSPCHRETPEWAEAKPWYEPIYQGGVFQLEKGDRLSAEINLPDYLDYAESGQVYFGIIAL
notes: Not purified; The whey samples served as the source of bovine TNF-alpha; also called bovine TNF-α; bovine TNF
B2: soluble bovine tumor necrosis factor receptor-I (TNF-RI) (receptor)
chain: LVPHPGDLEKRESPCPQGKYNHPQNSTICCTKCHKGTYLYNDCPGPGRDTDCRVCAPGTYTALENHLRRCLSCSRCRDEMFQVEISPCVVDRDTVCGCRKNQYREYWGETGFRCLNCSLCPNGTVNIPCQERQDTICHCHMGFFLKGAKCISCHDCKNKECEKLCPTRPSTGKDSQDPGTT

Assay [1] addresses B2. Nature of the assay: inferred from the TNF cytotoxicity inhibition assay on WEHI 164 cells; no direct binding assay.
The target of assay [2] is B1. As to the kind of experiment: cell-based or functional assay.

Bounds are passed on as bounds.

On to B1, for which the binding result in assay [1] is listed as “binds”.
On to B2, for which, in assay [2], the “fold potency at blocking bovine TNF-α, against MAb BC9” value was > 2 fold (vs MAb BC9).
